Legend:
[1] = molecular target: CD137 on primary human CD8+ T cells (human, UniProt Q07011 24-255); test: cell-based or functional assay
[2] = molecular target: T1, CD137 human/mouse chimera 1554 (human; mouse, UniProt P20334 96-159, limits assumed); test: FACS, 293-F transfectants; MFI/isotype, normalized to full-length CD137
T1 construct: domain: 3B, 4A and 4B; On 293-F cells; Human ranges derived from the printed mouse range; also called 1411

CTLA-4 (BMS, Orencia) = molecular target: T2, CTLA-4 (BMS, Orencia) (human); test: cell-based or functional assay
T2 chain: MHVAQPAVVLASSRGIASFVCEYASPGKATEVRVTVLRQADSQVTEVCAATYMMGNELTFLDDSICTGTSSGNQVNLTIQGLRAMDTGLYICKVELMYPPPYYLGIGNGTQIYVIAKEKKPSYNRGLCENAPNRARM

Sequence of CD137 on primary human CD8+ T cells (Q07011 24-255 limits assumed): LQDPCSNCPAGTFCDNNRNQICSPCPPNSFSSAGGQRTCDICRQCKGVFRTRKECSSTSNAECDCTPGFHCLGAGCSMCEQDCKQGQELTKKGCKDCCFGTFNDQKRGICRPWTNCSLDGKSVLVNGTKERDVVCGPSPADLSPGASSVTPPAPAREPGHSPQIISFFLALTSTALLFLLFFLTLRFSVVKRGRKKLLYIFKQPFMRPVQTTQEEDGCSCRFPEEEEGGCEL
T1 sequence (P20334 other isoform, or with tags, fused parts or gaps mutant limits assumed): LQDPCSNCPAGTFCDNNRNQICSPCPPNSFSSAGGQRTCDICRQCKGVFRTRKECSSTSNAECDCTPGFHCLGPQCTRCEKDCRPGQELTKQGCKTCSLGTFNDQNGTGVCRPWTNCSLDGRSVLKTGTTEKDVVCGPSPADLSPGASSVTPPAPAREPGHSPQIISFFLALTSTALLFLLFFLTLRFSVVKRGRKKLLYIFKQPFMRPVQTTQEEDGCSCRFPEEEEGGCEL

B1: anti-CD137 antibody 1204/1205 (antibody, IgG1, V domains shown)
VH: EVQLLESGGGLVQPGGSLRLSCAASGFTFSSYYMGWVRQAPGKGLEWVSGIGSYYGYTGYADSVKGRFTISRDNSKNTLYLQMNSLRAEDTAVYYCARAYYDYNYYYAYFDYWGQGTLVTVSS
VL: DIQMTQSPSSLSASVGDRVTITCRASQSISSYLNWYQQKPGKAPKLLIYAASSLQSGVPSRFSGSGSGTDFTLTISSLQPEDFATYYCQQSVPHYPFTFGQGTKLEIK
notes: Produced as IgG; IgG1 format stated for the T cell assay
Mean IFN-γ (pg/ml), CD8+ T cell assay [1]: 64400 pg/mL
relative binding [2]: 0.73

B2: bispecific OX40/CTLA-4 molecule 1526/1585 (bispecific antibody, human IgG1, kappa)
heavy: not shown
light: DIQMTQSPSSLSASVGDRVTITCRASQSISSYLNWYQQKPGKAPKLLIYAASSLQSGVPSRFSGSGSGTDFTLTISSLQPEDFATYYCQQYGSDSLLTFGQGTKLEIKRTVAAPSVFIFPPSDEQLKSGTASVVCLLNNFYPREAKVQWKVDNALQSGNSQESVTEQDSKDSTYSLSSTLTLSKADYEKHKVYACEVTHQGLSSPVTKSFNRGECSGGGGSGGGGSAPLKIQAYFNETADLPCQFANSQNLSLSELVVFWQDQENLVLNEVYLGKERFDSVDSKYMGRTSFDSDSWTLRLHNLQIKDKGRYQCIIHHKKPTGMINIHQMNSELSVLA
Mean IL-2 level (pg/ml) induced at 1.5 nM (CTLA-4 (BMS, Orencia)): 3200 pg/mL

From patent US20180118841A1 (published 2018)
